From patent US8703918 come the findings set out here.

This assay deals with prostate specific membrane antigen (PSMA) (human) (UniProt Q04609). Put plainly: FACS on LNCaP (PSMA+) cells; negative control, background signal.
prostate specific membrane antigen (PSMA) (human), sequence (Q04609 whole entry): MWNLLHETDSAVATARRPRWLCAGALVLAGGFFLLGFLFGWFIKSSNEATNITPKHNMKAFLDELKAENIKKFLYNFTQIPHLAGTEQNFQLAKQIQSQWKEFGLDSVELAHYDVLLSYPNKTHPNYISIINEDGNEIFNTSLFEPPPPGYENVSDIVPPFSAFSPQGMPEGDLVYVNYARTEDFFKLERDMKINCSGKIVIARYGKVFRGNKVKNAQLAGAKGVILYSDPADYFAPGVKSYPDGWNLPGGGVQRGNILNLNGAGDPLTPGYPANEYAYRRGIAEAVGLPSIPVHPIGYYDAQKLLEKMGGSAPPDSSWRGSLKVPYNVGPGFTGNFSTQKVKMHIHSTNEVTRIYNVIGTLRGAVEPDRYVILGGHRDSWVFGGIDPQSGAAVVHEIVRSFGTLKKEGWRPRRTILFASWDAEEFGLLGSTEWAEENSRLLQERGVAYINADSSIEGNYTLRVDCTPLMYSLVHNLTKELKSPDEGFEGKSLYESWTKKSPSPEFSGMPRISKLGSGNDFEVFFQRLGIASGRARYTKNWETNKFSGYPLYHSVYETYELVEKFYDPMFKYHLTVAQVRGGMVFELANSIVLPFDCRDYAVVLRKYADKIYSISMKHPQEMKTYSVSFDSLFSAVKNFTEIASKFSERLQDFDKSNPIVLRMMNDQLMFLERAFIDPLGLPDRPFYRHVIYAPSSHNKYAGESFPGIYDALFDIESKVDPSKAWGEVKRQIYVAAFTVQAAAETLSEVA

Substance avidin-FITC had an MFI of 161 MFI.
